The record followed here is publication PMC2919722.

Common to all, as to test: EMSA
In general terms: A gel shift assay detects complexes by their altered migration in electrophoresis.

Data set [1] deals with T1, MBD1 CXXC3 (UniProt Q9UIS9-5 252-344).
T1 sequence: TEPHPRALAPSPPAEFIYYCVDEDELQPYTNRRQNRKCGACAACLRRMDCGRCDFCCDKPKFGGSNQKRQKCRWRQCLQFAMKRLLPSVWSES

Data set [2] has as its target T2, GST-MBD1 MBD (1-161) (UniProt Q9UIS9 1-161).
T2 sequence: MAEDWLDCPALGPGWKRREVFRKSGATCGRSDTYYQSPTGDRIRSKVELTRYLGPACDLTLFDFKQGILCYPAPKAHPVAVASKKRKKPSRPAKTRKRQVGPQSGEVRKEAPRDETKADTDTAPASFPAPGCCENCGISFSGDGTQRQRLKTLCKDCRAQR

The target of data set [3] is T2, GST-MBD1 MBD (1-161). The source holds these as a separate data set.
For data set [4], the target named is T2, GST-MBD1 MBD (1-161). The source holds these as a separate data set.
Data set [5] addresses T2, GST-MBD1 MBD (1-161). The source holds these as a separate data set.
The target in data set [6] is T2, GST-MBD1 MBD (1-161). The source holds these as a separate data set.

Where two headings read alike, the source gives them in different places.

B1: CCGT, unmethylated (dsDNA)
DNA 1: ACATGCCTCATGCCGTACTTAACTGCAGCT
DNA 2: AGCTGCAGTTAAGTACGGCATGAGGCATGT
With B1, the binding result in data set [1] was “binds”.

B2: CCGA, unmethylated (dsDNA)
DNA 1: ACATGCCTCATGCCGAACTTAACTGCAGCT
DNA 2: AGCTGCAGTTAAGTTCGGCATGAGGCATGT
As to B2, in data set [1], the binding result is reported as “binds”.

B3: TGmCGCA, methylated (dsDNA)
DNA 1: ACATGCCTCATTGCGCACTTAACTGCAGCT
DNA 2: AGCTGCAGTTAAGTGCGCAATGAGGCATGT
modifications: 5mC at CpG, both strands (implied)
For the molecule B3, the binding result in data set [2] is “binds”.

B4: A/T run mutated, methylated (dsDNA)
DNA 1: ACATGCCTCATGCCGGACTCGACTGCAGCT
DNA 2: AGCTGCAGTCGAGTCCGGCATGAGGCATGT
modifications: 5mC at C14 and opposite strand CpG (implied)
As to B4, the binding result in data set [3] is “binds”.

B5: GCGG, unmethylated (dsDNA)
DNA 1: ACATGCCTCATGGCGGACTTAACTGCAGCT
DNA 2: AGCTGCAGTTAAGTCCGCCATGAGGCATGT
B5: in data set [1], the binding result is “binds”.

B6: CmCGC, methylated (dsDNA)
DNA 1: ACATGCCTCATGCCGCACTTAACTGCAGCT
DNA 2: AGCTGCAGTTAAGTGCGGCATGAGGCATGT
modifications: 5mC at CpG, both strands (implied)
B6: the binding result in data set [4] is given as “binds”.

B7: CCGC, unmethylated (dsDNA)
DNA 1: ACATGCCTCATGCCGCACTTAACTGCAGCT
DNA 2: AGCTGCAGTTAAGTGCGGCATGAGGCATGT
Take B7: in data set [1], the binding result was “binds”.

B8: TTmCGCA, methylated (dsDNA)
DNA 1: ACATGCCTCATTTCGCACTTAACTGCAGCT
DNA 2: AGCTGCAGTTAAGTGCGAAATGAGGCATGT
modifications: 5mC at CpG, both strands (implied)
For the molecule B8, the binding result in data set [5] is on record as “binds”.

B9: ACGG, unmethylated (dsDNA)
DNA 1: ACATGCCTCATGACGGACTTAACTGCAGCT
DNA 2: AGCTGCAGTTAAGTCCGTCATGAGGCATGT
For B9, in data set [1], the binding result is on record as “binds”.

B10: CCGG, unmethylated (dsDNA)
DNA 1: ACATGCCTCATGCCGGACTTAACTGCAGCT
DNA 2: AGCTGCAGTTAAGTCCGGCATGAGGCATGT
With B10, the binding result in data set [1] is on record as “binds”.

B11: TmCGG, methylated (dsDNA)
DNA 1: ACATGCCTCATGTCGGACTTAACTGCAGCT
DNA 2: AGCTGCAGTTAAGTCCGACATGAGGCATGT
modifications: 5mC at CpG, both strands (implied)
For B11, the binding result in data set [6] is given as “binds”.

B12: TCGG, unmethylated (dsDNA)
DNA 1: ACATGCCTCATGTCGGACTTAACTGCAGCT
DNA 2: AGCTGCAGTTAAGTCCGACATGAGGCATGT
For the molecule B12, the binding result in data set [1] was “binds”.
